Laboratory results published in patent publication US20250263504A1 (Takeda / Millennium, published 2025).

T1: Factor XIIa (FXIIa) (UniProt P00748 20-372; P00748 373-615, limits assumed)
T1 construct: the description speaks of human FXIIa; also called active Factor XII
T1 sequence (looked up) 1: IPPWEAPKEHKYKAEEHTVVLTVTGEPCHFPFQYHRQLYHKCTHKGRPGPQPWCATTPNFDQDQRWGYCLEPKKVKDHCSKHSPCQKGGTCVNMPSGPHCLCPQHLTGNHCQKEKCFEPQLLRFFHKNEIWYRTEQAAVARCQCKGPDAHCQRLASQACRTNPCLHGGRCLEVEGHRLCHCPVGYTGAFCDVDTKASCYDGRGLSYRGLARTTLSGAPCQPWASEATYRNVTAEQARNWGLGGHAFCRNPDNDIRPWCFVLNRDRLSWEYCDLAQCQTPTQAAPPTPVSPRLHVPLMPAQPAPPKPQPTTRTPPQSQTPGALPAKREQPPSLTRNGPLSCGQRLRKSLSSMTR
T1 sequence (looked up) 2: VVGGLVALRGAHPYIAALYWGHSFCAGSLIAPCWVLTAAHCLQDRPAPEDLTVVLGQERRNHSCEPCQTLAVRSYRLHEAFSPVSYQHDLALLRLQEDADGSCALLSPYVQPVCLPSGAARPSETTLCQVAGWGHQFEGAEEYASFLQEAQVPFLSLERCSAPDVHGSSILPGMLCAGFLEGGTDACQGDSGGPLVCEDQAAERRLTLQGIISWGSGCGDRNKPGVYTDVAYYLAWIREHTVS

B1: 620I-X0179-C01 (bispecific antibody, human IgG1, kappa)
heavy: not shown
light: DIQMTQSPSTLSASVGDRVTITCRASQSISSWLAWYQQKPGKAPKLLIYKASTLESGVPSRFSGSGSGTEFTLTISSLQPDDFATYYCQQYNTYWTFGQGTKVEIKRTVAAPSVFIFPPSDEQLKSGTASVVCLLNNFYPREAKVQWKVDNALQSGNSQESVTEQDSKDSTYSLSSTLTLSKADYEKHKVYACEVTHQGLSSPVTKSFNRGEC
notes: 620I-X0177-A01 with IgG C-terminal Lys changed to Gly; also called 620I-R0052-C01; 620I-X179-C01
B2: 620I-X0179-E05 (bispecific antibody, human IgG1, kappa)
heavy: not shown
light: B1 light
notes: 620I-X0177-C01 with IgG C-terminal Lys deleted; also called 620I-R0052-E01
B3: 620I-X0138-B01 (bispecific antibody, human IgG1, kappa)
heavy: not shown
light: B1 light
notes: also called 620I-X138-B01
B4: 620I-X0142-B11 (bispecific antibody, human IgG1, kappa)
heavy: not shown
light: B1 light
notes: also called 620I-X142-B11
B5: 620I-X0139-B10 (bispecific antibody)
heavy: not shown
light: B1 light
notes: also called 620I-X139-B10
B6: 620I-X0138-E05 (bispecific antibody)
heavy: not shown
light: B1 light
notes: also called 620I-X138-E05
B7: 620I-X0142-E02 (bispecific antibody)
heavy: not shown
light: B1 light
notes: also called 620I-X142-E02
B8: 620I-X0142-B02 (bispecific antibody)
heavy: not shown
light: B1 light
notes: also called 620I-X142-B02
B9: 620I-X0139-A11 (bispecific antibody)
heavy: not shown
light: B1 light
notes: also called 620I-X139-A11
B10: 620I-X0180-G03 (bispecific antibody, human IgG1, kappa)
heavy: not shown
light: B1 light
notes: 620I-X0177-E01 with IgG C-terminal Lys changed to Gly; also called 620I-R0052-G03; 620I-X180-G03
B11: 620I-X0142-A04 (bispecific antibody)
heavy: not shown
light: B1 light
notes: also called 620I-X142-A04
B12: 620I-X0138-D04 (bispecific antibody)
heavy: not shown
light: B1 light
notes: also called 620I-X138-D04
B13: 620I-X0138-A12 (bispecific antibody)
heavy: not shown
light: B1 light
notes: also called 620I-X138-A12
B14: 620I-X0139-A01 (bispecific antibody)
heavy: not shown
light: B1 light
notes: also called 620I-X139-A01
B15: 620I-X0142-B07 (bispecific antibody)
heavy: not shown
light: B1 light
notes: also called 620I-X142-B07
B16: 620I-X0138-G12 (bispecific antibody)
heavy: not shown
light: B1 light
notes: also called 620I-X138-G12
B17: 620I-X0139-G12 (bispecific antibody)
heavy: not shown
light: B1 light
notes: also called 620I-X139-G12
B18: 620I-X0138-C07 (bispecific antibody)
heavy: not shown
light: B1 light
notes: also called 620I-X138-C07
B19: 620I-X0138-D05 (bispecific antibody)
heavy: not shown
light: B1 light
notes: also called 620I-X138-D05
B20: 620I-X0139-D12 (bispecific antibody)
heavy: not shown
light: B1 light
notes: also called 620I-X139-D12
B21: 620I-X0179-A09 (bispecific antibody, human IgG1, kappa)
heavy: not shown
light: B1 light
notes: 620I-X0177-A01 with IgG C-terminal Lys deleted; also called 620I-R0052-A01; 620I-X179-A09
B22: 620I-X0139-E05 (bispecific antibody)
heavy: not shown
light: B1 light
notes: also called 620I-X139-E05
B23: 620I-X0142-A05 (bispecific antibody)
heavy: not shown
light: B1 light
notes: also called 620I-X142-A05
B24: 620I-X0138-F05 (bispecific antibody)
heavy: not shown
light: B1 light
notes: also called 620I-X138-F05
B25: 620I-X0180-C11 (bispecific antibody, human IgG1, kappa)
heavy: not shown
light: B1 light
notes: 620I-X0177-G01 with IgG C-terminal Lys changed to Gly; also called 620I-R0052-C03; 620I-X180-C11
B26: 620I-X0138-A08 (bispecific antibody)
heavy: not shown
light: B1 light
notes: also called 620I-X138-A08
B27: 620I-X0138-D03 (bispecific antibody)
heavy: not shown
light: B1 light
notes: also called 620I-X138-D03
B28: 620I-X0138-D11 (bispecific antibody)
heavy: not shown
light: B1 light
notes: also called 620I-X138-D11
B29: 620I-X0138-B06 (bispecific antibody)
heavy: not shown
light: B1 light
notes: also called 620I-X138-B06
B30: 620I-X0138-D06 (bispecific antibody)
heavy: not shown
light: B1 light
notes: also called 620I-X138-D06
B31: 620I-X0142-D04 (bispecific antibody)
heavy: not shown
light: B1 light
notes: also called 620I-X142-D04
B32: 620I-X0138-F02 (bispecific antibody)
heavy: not shown
light: B1 light
notes: also called 620I-X138-F02
B33: 620I-X0138-E03 (bispecific antibody)
heavy: not shown
light: B1 light
notes: also called 620I-X138-E03
B34: 620I-X0138-B07 (bispecific antibody)
heavy: not shown
light: B1 light
notes: also called 620I-X138-B07
B35: 620I-X0179-G05 (bispecific antibody, human IgG1, kappa)
heavy: not shown
light: B1 light
notes: 620I-X0177-C01 with IgG C-terminal Lys changed to Gly; also called 620I-R0052-G01; 620I-X179-G05
B36: 620I-X0138-C12 (bispecific antibody)
heavy: not shown
light: B1 light
notes: also called 620I-X138-C12
B37: 620I-X0142-A02 (bispecific antibody)
heavy: not shown
light: B1 light
notes: also called 620I-X142-A02
B38: 620I-X0138-B10 (bispecific antibody)
heavy: not shown
light: B1 light
notes: also called 620I-X138-B10
B39: 620I-X0139-A12 (bispecific antibody)
heavy: not shown
light: B1 light
notes: also called 620I-X139-A12

What was measured:
plasma kallikrein (pKal) [1] = target: T2, plasma kallikrein (pKal) (UniProt P03952 20-390; P03952 391-638, limits assumed); test: pKal enzyme inhibition, Ki,app
T2 construct: the description speaks of human pKal; also called active pKal
T2 sequence (P03952 20-390 limits assumed, form in doubt, chain 1 of 2): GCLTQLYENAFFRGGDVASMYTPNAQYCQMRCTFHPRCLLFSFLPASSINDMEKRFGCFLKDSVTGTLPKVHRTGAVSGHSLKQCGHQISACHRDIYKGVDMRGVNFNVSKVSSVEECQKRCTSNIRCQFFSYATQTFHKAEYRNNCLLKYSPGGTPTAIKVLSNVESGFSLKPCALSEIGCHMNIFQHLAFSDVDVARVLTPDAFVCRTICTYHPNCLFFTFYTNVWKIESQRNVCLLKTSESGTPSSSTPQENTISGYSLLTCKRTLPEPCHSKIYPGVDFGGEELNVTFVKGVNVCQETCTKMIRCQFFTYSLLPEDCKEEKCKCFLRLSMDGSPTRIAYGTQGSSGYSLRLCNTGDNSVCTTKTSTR
T2 sequence (P03952 391-638 limits assumed, form in doubt, chain 2 of 2): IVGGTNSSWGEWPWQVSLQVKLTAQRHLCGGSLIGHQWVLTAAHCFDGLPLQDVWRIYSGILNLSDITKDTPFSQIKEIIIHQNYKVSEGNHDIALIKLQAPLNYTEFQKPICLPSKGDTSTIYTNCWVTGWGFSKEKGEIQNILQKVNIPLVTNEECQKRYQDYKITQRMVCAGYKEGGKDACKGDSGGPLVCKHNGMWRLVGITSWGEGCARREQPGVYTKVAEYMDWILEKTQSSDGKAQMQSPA

Factor XIIa (FXIIa) [2] = target: T1, Factor XIIa (FXIIa); test: FXIIa enzyme inhibition, Ki,app
plasma kallikrein (pKal) [3] = target: T2, plasma kallikrein (pKal); test: enzyme inhibition, corrected Ki,app
Factor XIIa (FXIIa) [4] = target: T1, Factor XIIa (FXIIa); test: enzyme inhibition, corrected Ki,app

Binder | Ki (plasma kallikrein (pKal) [1]) | Ki (Factor XIIa (FXIIa) [2]) | Ki (plasma kallikrein (pKal) [3]) | Ki (Factor XIIa (FXIIa) [4])
B1 | 0.243 nM | 0.108 nM | – | –
B2 | 0.203 nM | 0.099 nM | – | –
B3 | – | – | 0.169 nM | 6.63 nM
B4 | – | – | 0.622 nM | 7.72 nM
B5 | – | – | 0.247 nM | 0.189 nM
B6 | – | – | 0.186 nM | 0.245 nM
B7 | – | – | 0.162 nM | 0.186 nM
B8 | – | – | 0.156 nM | 0.955 nM
B9 | – | – | 0.235 nM | 3.83 nM
B10 | 0.208 nM | 0.071 nM | – | –
B11 | – | – | 0.162 nM | 1.23 nM
B12 | – | – | 0.215 nM | 0.079 nM
B13 | – | – | 0.405 nM | 1.93 nM
B14 | – | – | 0.146 nM | 0.053 nM
B15 | – | – | 0.224 nM | 0.775 nM
B16 | – | – | 0.186 nM | 0.766 nM
B17 | – | – | 0.276 nM | 0.252 nM
B18 | – | – | 0.196 nM | 0.314 nM
B19 | – | – | 0.519 nM | 0.139 nM
B20 | – | – | 0.428 nM | 0.383 nM

Binder | Ki (plasma kallikrein (pKal) [1]) | Ki (Factor XIIa (FXIIa) [2]) | Ki (plasma kallikrein (pKal) [3]) | Ki (Factor XIIa (FXIIa) [4])
B21 | 0.225 nM | 0.09 nM | – | –
B22 | – | – | 0.196 nM | 0.172 nM
B23 | – | – | 0.16 nM | 2.14 nM
B24 | – | – | 0.214 nM | 0.147 nM
B25 | 0.232 nM | 0.14 nM | – | –
B26 | – | – | 0.92 nM | 0.357 nM
B27 | – | – | 0.079 nM | 0.344 nM
B28 | – | – | 0.178 nM | 0.443 nM
B29 | – | – | 0.33 nM | 0.405 nM
B30 | – | – | 0.199 nM | 0.132 nM
B31 | – | – | 0.17 nM | 0.414 nM
B32 | – | – | 0.464 nM | 0.794 nM
B33 | – | – | 0.178 nM | 0.122 nM
B34 | – | – | 0.246 nM | 0.135 nM
B35 | 0.226 nM | 0.052 nM | – | –
B36 | – | – | 0.267 nM | 0.697 nM
B37 | – | – | 0.152 nM | 0.063 nM
B38 | – | – | 0.075 nM | 0.058 nM
B39 | – | – | 2.05 nM | 4.08 nM
